Assay results published in patent US20200087363A1 (IMMATICS BIOTECHNOLOGIES, published 2020).

Target: T1, HLA-B*44:05 (human)
T1 construct: also called peptide-receptive MHC class I molecule
Test: UV peptide exchange, anti-b2m ELISA
Method: Only peptide candidates that can effectively bind and stabilize the peptide-receptive MHC molecules prevent dissociation of the MHC complexes. To determine the yield of the exchange reaction, an ELISA was performed based on the detection of the light chain (β2m) of stabilized MHC complexes. The assay was performed as generally described in Rodenko et al. (Rodenko et al., 2006)
96 well MAXISorp plates (NUNC) were coated over night with 2 ug/ml streptavidin in PBS at room temperature, washed 4× and blocked for 1 h at 37° C. in 2% BSA containing blocking buffer. […] Peptide-MHC monomers of the UV-exchange reaction were diluted 100-fold in blocking buffer. Samples were incubated for 1 h at 37° C., washed four times, incubated with 2 ug/ml HRP conjugated anti-β2m for 1 h at 37° C., washed again and detected with TMB solution that is stopped with […]. Absorption was measured at 450 nm.

Row | peptide exchange yield | Binder
1 | 20 to 50% | SQDVAGTTF
2 | 50 to 75% | SEKWFRMGF
3 | 50 to 75% | REYQEVMNSKL
4 | 50 to 75% | SEASQSPQY
5 | 50 to 75% | VEEERYTGQW
6 | 20 to 50% | SEVFHVSEA
7 | 20 to 50% | RMLSFQQMTW
8 | 20 to 50% | TEHSGIYSC
9 | > 75% | VEVKYEGHW
10 | 50 to 75% | SEVPVDSHYY
11 | 20 to 50% | VEAQDRETW
12 | > 75% | TEDARHPESW
13 | 50 to 75% | SEVPVDSHY
14 | 50 to 75% | RYFDENIQKFIW
15 | 10 to 20% | VTEGAVEVKY
16 | 50 to 75% | SEIYQPRGF
17 | 50 to 75% | TELTEARVQVW
18 | 20 to 50% | TELQIPSF
19 | > 75% | VEVNGVPRW
20 | 50 to 75% | YENIPVDKV
21 | 20 to 50% | WEVVHTVF

Further lines, the binder ahead of its results:

Row | Binder | peptide exchange yield
22 | AEIEADRSYQH | 50 to 75%
23 | KEHNSSVPWSS | > 75%
24 | QELFLHPVL | > 75%
25 | KEAPNIVTL | > 75%
26 | DEINHQSL | 20 to 50%
27 | AETENRYCV | 50 to 75%
28 | EELRMLSF | 20 to 50%
29 | DEDGKIVGY | 20 to 50%
30 | KEVDPTGHSF | 50 to 75%
31 | EEQDFINNRY | > 75%
32 | NEAGEMIKHY | 20 to 50%
33 | AETEPERHLG | 20 to 50%
34 | IEIKDRLQL | 50 to 75%
35 | AEDEDGKIVGY | 20 to 50%
36 | QEIDQKRLEF | 20 to 50%
37 | NENLDYAIL | > 75%
38 | EMPGGPVW | 50 to 75%
39 | HENLIEDF | 50 to 75%
40 | EKGLISAF | 20 to 50%
41 | KEVDPASNTYTL | 20 to 50%
42 | KESDAGRYY | 50 to 75%
43 | KESDAGKYY | 50 to 75%
44 | EEMPEEIHL | 50 to 75%
45 | QEIDRGQYI | > 75%
46 | LEVLHQGQW | 50 to 75%

Row | Binder | peptide exchange yield
47 | AEIATTGQLY | 50 to 75%
48 | IEIILLSGSL | > 75%
49 | IEAYLERIGY | 50 to 75%
50 | EEIEAHIAL | 50 to 75%
51 | AESFTSGRHYW | > 75%
52 | GESVSWHLF | 50 to 75%
53 | EVEVGEVKSW | 10 to 20%
54 | AEANPRDLGASW | 50 to 75%
55 | EAYDIELNKW | 50 to 75%
56 | MEAELVRRI | 50 to 75%
57 | QEAPRPASSL | 50 to 75%
58 | EEVQDGKVI | 20 to 50%
59 | NESDRLVYF | 50 to 75%
60 | IEAPKLMVV | 10 to 20%
61 | REMFVFKDQW | > 75%
62 | EEGPSVPKIY | 20 to 50%
63 | MEELRMLSF | 50 to 75%
64 | QEPFTRPVL | 50 to 75%
65 | RESHLTEIRQY | 20 to 50%
66 | HEIIIRSHW | 50 to 75%
67 | GESSEVKAVL | 50 to 75%
68 | MEFKTLNKN | 20 to 50%
69 | EEAMKRLSY | 20 to 50%
70 | AESDFSNNML | 50 to 75%
